In IntAct's records for PubMed 25517094:

Target: SH3GL1, Q99961-1
Sequence (Q99961 whole entry): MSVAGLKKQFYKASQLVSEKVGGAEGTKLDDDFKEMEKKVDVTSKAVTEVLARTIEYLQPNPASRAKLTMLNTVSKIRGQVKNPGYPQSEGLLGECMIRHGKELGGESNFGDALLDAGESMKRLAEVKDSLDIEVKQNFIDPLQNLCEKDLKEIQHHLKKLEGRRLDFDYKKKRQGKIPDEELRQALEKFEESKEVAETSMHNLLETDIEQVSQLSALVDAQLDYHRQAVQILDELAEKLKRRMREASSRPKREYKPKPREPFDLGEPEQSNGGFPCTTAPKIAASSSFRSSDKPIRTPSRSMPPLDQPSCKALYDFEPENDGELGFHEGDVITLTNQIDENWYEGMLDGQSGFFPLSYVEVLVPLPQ

Sequence of Beta-1 adrenergic receptor (Mus musculus), P34971 R298E;R299E (P34971 whole entry R298E/R299E): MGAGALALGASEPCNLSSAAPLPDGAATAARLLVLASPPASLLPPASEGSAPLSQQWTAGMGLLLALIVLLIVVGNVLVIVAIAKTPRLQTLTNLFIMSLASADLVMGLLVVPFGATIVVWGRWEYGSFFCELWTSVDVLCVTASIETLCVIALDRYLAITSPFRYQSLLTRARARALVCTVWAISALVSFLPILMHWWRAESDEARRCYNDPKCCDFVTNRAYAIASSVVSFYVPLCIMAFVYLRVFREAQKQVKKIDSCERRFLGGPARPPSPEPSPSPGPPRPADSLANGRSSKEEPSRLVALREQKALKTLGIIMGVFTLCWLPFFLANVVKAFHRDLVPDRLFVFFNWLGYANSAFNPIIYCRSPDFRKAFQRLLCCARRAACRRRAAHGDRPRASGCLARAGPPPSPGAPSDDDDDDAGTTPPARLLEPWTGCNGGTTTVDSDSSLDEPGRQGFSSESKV
Sequence of Beta-1 adrenergic receptor (Mus musculus), P34971 P272A;P273A;P283A;P284A (P34971 whole entry P272A/P273A/P283A/P284A): as the sequence (P34971 whole entry R298E/R299E) above, with P272A, P273A, P283A, P284A, E298R, E299R counted along it
Sequence of Beta-1 adrenergic receptor (Mus musculus), P34971 R271A (P34971 whole entry R271A): as the sequence (P34971 whole entry R298E/R299E) above, with R271A, E298R, E299R counted along it
Sequence of Beta-1 adrenergic receptor (Mus musculus), P34971 P272A;P273A (P34971 whole entry P272A/P273A): as the sequence (P34971 whole entry R298E/R299E) above, with P272A, P273A, E298R, E299R counted along it

| Substance | effect of a mutation on the interaction |
| --- | --- |
| Beta-1 adrenergic receptor (Mus musculus), P34971 P272A;P273A | decreasing interaction strength |
| Beta-1 adrenergic receptor (Mus musculus), P34971 P272A;P273A;P283A;P284A | disrupting interaction strength |
| Beta-1 adrenergic receptor (Mus musculus), P34971 R271A | decreasing interaction strength |
| Beta-1 adrenergic receptor (Mus musculus), P34971 R298E;R299E | decreasing interaction strength |
